Assay results as given in PMC4066767, “Distinct nucleic acid interaction properties of HIV-1 nucleocapsid protein precursor NCp15 explain reduced viral infectivity”.

Key:
NCp15 (p9 + p6) (HIV-1) = NCp15 (p9 + p6) (HIV-1) (UniProt P12493); experiment: fluorescence anisotropy
[1] = target: NCp7 (mature nucleocapsid) (HIV-1) (UniProt P12493); experiment: fluorescence anisotropy
NCp9 (p7 + SP2) (HIV-1) = NCp9 (p7 + SP2) (HIV-1) (UniProt P12493); experiment: fluorescence anisotropy
[2] = target: NCp7 (mature nucleocapsid) (HIV-1, UniProt P12493 378-432); experiment: fluorescence anisotropy salt titration; Kd extrapolated to 1 M NaCl; Zeff 3.0 ± 0.3; conditions: protein: recombinant; tags: none (Trx tag removed by TEV); label: 5' FAM; single strand
NCp15 (p9 + p6) = NCp15 (p9 + p6) (HIV-1, UniProt P12493 378-500); experiment: fluorescence anisotropy salt titration; Kd extrapolated to 1 M NaCl; Zeff 3.8 ± 0.7; conditions: protein: recombinant; tags: none (Trx tag removed by TEV); label: 5' FAM; single strand
NCp9 (p7 + SP2) = NCp9 (p7 + SP2) (HIV-1, UniProt P12493 378-448); experiment: fluorescence anisotropy salt titration; Kd extrapolated to 1 M NaCl; Zeff 4.3 ± 0.7; conditions: protein: recombinant; tags: none (Trx tag removed by TEV); label: 5' FAM; single strand

Molecule	Kd (NCp15 (p9 + p6) (HIV-1)) [µM]	Kd [1] [µM]	Kd (NCp9 (p7 + SP2) (HIV-1)) [µM]	Kd [2] [µM]	Kd (NCp15 (p9 + p6)) [µM]	Kd (NCp9 (p7 + SP2)) [µM]
shortPBS RNA (105 nt)	0.278	0.231	0.24	–	–	–
ACTGGACCAAATTCTAATGTGTGTGTACGAAGCATAGCGG (ssDNA) [40-nt ssDNA]	–	–	–	23	78	92
